Test results reported in patent publication US7119183.

Biological target: human CDw32 antigen (IgG Fc receptor) (human) (UniProt P12318)
Assay: indirect immunofluorescence on CDw32-transfected COS cells

Sequence of UniProt P12318 (P12318 34-317 H167R limits assumed, form in doubt): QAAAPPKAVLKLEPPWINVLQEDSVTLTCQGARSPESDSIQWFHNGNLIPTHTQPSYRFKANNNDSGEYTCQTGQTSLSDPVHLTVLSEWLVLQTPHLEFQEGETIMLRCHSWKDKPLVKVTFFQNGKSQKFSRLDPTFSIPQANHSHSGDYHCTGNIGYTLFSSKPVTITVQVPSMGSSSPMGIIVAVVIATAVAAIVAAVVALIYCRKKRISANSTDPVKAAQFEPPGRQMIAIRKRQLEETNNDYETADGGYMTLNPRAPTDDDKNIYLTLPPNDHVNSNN

| Kd [nM] | Substance |
| --- | --- |
| 100 | human IgG (antibody) |
| 100 | mouse IgG (antibody) |
